Reference: publication PMC5263102

Biological target: chimeric FcεRI (human α, rat β/γ) on hRBL^rαKO cells (human | rat (endogenous in RBL-2H3)) (UniProt P12319)
Assay: flow cytometry on cells

UniProt P12319, sequence (P12319 26-257, change not shown, chain 1 of 3): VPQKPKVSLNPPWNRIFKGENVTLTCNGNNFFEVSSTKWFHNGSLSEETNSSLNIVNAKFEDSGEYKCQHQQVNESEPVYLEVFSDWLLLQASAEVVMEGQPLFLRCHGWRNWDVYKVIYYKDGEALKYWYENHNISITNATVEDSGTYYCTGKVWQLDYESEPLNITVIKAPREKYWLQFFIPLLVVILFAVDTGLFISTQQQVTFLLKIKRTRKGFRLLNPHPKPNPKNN
UniProt P12319, sequence (P13386 whole entry, change not shown, chain 2 of 3, further chain): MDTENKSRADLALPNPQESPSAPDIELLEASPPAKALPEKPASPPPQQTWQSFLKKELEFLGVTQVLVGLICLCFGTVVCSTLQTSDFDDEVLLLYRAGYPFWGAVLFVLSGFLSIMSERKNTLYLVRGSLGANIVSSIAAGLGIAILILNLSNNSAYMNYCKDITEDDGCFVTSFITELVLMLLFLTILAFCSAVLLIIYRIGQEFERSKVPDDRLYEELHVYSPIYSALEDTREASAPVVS
UniProt P12319, sequence (P20411 19-86, change not shown, chain 3 of 3, further chain): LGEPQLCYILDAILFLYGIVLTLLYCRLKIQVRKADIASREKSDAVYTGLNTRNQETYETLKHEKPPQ

**Q.** Which % Receptor Occupied at 3.75 ng/ml IgE does the source give for “human IgE, Alexa 488-conjugated (hIgE^Alexa-488) (antibody)” here?
**A.** 0.16%

**Q.** What about the % Receptor Occupied at 7.5 ng/ml IgE of the same substance?
**A.** 0.26%

**Q.** And the % Receptor Occupied at 15 ng/ml IgE?
**A.** 0.44%

**Q.** What about the % Receptor Occupied at 30 ng/ml IgE of the same substance?
**A.** 1.1%

**Q.** What about the % Receptor Occupied at 60 ng/ml IgE of the same substance?
**A.** 1.89%

**Q.** What about the % Receptor Occupied at 120 ng/ml IgE of the same substance?
**A.** 4%

**Q.** And the % Receptor Occupied at 1000 ng/ml IgE?
**A.** 28%

**Q.** And the % Receptor Occupied at 4000 ng/ml IgE?
**A.** 60%

**Q.** What about the % Receptor Occupied at 8000 ng/ml IgE of the same substance?
**A.** 78%

**Q.** And the % Receptor Occupied at 10000 ng/ml IgE?
**A.** 83%

**Q.** What about the % Receptor Occupied at 15000 ng/ml IgE of the same substance?
**A.** 93%

**Q.** And the % Receptor Occupied at 20000 ng/ml IgE?
**A.** 100%

**Q.** And the koff?
**A.** 1.53e-05 s⁻¹

**Q.** And the kon?
**A.** 6230 M⁻¹ s⁻¹
